Data on 2 molecules can be found in publication PMC4132724.

This data set has as its target T1, Pot1pN (Schizosaccharomyces pombe, UniProt O13988 1-185).
T1 sequence: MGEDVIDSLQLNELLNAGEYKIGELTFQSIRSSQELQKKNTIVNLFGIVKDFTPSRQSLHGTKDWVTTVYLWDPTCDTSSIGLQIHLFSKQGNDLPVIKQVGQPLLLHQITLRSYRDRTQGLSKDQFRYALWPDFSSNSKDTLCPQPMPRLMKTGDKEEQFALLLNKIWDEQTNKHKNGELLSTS
The data set can be described thus: EMSA. (A gel shift assay detects complexes by their altered migration in electrophoresis.)

Regarding GGTCACGGTCACAGGTTACA (ssDNA) [20-mer control (GGTTAC)], binding was put at a Kd of 66 ± 5 nM.

On to GGTCACGGTCACAGGUTACA (ssDNA, 5-hydroxymethyl-2'-deoxyuridine at position 16 (written U)) [5hmU at T3], for which the affinity, expressed as Kd, was 67 ± 5.6 nM.
